B1: peptide HD2 (from tick evasin EVA4) / CCL1 (biotinylated, synthetic) (parent complex)
chain 1: EEDDYTAYAPLTCYFT
chain 2: KSMQVPFSRCCFSFAEQEIPLRAILCYRNTSSICSNEGLIFKLKRGKEACALDTVGWVQRHRKMLRHCPSKRK

This experiment covers variants of B1.
chain 1 EEDDYTAYAPLTCWFT: the enrichment was -0.649 log2 (difference from the parental peptide).
In the case of chain 1 EEDDYTAYAPLTCMFT, the enrichment was -4.74 log2 (difference from the parental peptide).
For chain 1 EEDDYTAYAPLTDYFT the value was -7.39 log2 (difference from the parental peptide); for chain 1 EEDDYTAYAPLTEYFT, -6.35 log2 (difference from the parental peptide); for chain 1 EEDDYTAYAPLTAYFT, -7.27 log2 (difference from the parental peptide).
For chain 1 EEDDYTAYAPLTYYFT the value was -5.39 log2 (difference from the parental peptide).
As for chain 1 EEDDYWAYAPLTCYFT, the figure is 0.875 log2 (difference from the parental peptide); as for chain 1 EEDDYDAYAPLTCYFT, 4.62 log2 (difference from the parental peptide).
In the case of chain 1 EEDDYHAYAPLTCYFT, the enrichment was -1.17 log2 (difference from the parental peptide).
Turning to chain 1 EEDDYPAYAPLTCYFT, the enrichment is -5.02 log2 (difference from the parental peptide).
With chain 1 EEDDYGAYAPLTCYFT, the enrichment was 3.41 log2 (difference from the parental peptide).
For chain 1 EEDDYTAYAMLTCYFT the value was -6.14 log2 (difference from the parental peptide); for chain 1 EEDDYTAYAQLTCYFT, -4.62 log2 (difference from the parental peptide); for chain 1 EEDDYTAYAALTCYFT, -5.62 log2 (difference from the parental peptide).
For the variant chain 1 EEDDYTAYAPLTCYTT, the enrichment is 1.39 log2 (difference from the parental peptide).
Turning to chain 1 EEDDYTAYAPLTCYYT, the enrichment was 1.84 log2 (difference from the parental peptide).
With chain 1 EEDDYTAYAPLTCYWT, the enrichment is -0.244 log2 (difference from the parental peptide).
As for chain 1 EEDDYTAYAPLTCYLT, the figure is 2.03 log2 (difference from the parental peptide); as for chain 1 EEDDYTAYAPLTCYCT, -6.07 log2 (difference from the parental peptide).
In the case of chain 1 EEDDYTRYAPLTCYFT, the enrichment was 2.51 log2 (difference from the parental peptide).
For chain 1 EEDDYTAPAPLTCYFT the value was -6.09 log2 (difference from the parental peptide).
For chain 1 EEDWYTAYAPLTCYFT the value was -2.57 log2 (difference from the parental peptide); for chain 1 EEDNYTAYAPLTCYFT, -6.19 log2 (difference from the parental peptide); for chain 1 EEDAYTAYAPLTCYFT, -7.31 log2 (difference from the parental peptide).
On to chain 1 EEDDFTAYAPLTCYFT, for which the enrichment is -4.11 log2 (difference from the parental peptide).
As for chain 1 EEDDWTAYAPLTCYFT, the figure is 0.92 log2 (difference from the parental peptide).
For chain 1 WEDDYTAYAPLTCYFT, the enrichment was -2.32 log2 (difference from the parental peptide).
For chain 1 QEDDYTAYAPLTCYFT the value was -1.24 log2 (difference from the parental peptide).
For chain 1 PEDDYTAYAPLTCYFT the value was -3.07 log2 (difference from the parental peptide).
For chain 1 KEDDYTAYAPLTCYFT the value was -5.3 log2 (difference from the parental peptide).
chain 1 LEDDYTAYAPLTCYFT: the enrichment was -1.81 log2 (difference from the parental peptide).
As for chain 1 FEDDYTAYAPLTCYFT, the figure is -2.45 log2 (difference from the parental peptide); as for chain 1 HEDDYTAYAPLTCYFT, -2.16 log2 (difference from the parental peptide); as for chain 1 EEDDYTAYAPFTCYFT, -4.27 log2 (difference from the parental peptide).
For the variant chain 1 EEDDYTAYAPCTCYFT, the enrichment was -1.68 log2 (difference from the parental peptide).
As for chain 1 EEDDYTAYAPDTCYFT, the figure is -8.31 log2 (difference from the parental peptide); as for chain 1 EEDDYTAYAPITCYFT, 2.18 log2 (difference from the parental peptide).
As for chain 1 EEDDYTAYAPLTCYFP, the figure is 1.67 log2 (difference from the parental peptide).
Take chain 1 EEDDYTAYAPLTCYFM: the enrichment was 0.0746 log2 (difference from the parental peptide).
chain 1 EEDDYTAYAPLTCYFH: the enrichment is -0.232 log2 (difference from the parental peptide).
Consider chain 1 EEDDYTAYAPLTCYFV, for which the enrichment was -0.26 log2 (difference from the parental peptide).
Turning to chain 1 EEDDYTAYAPLTCYFE, the enrichment is 1.93 log2 (difference from the parental peptide).
Regarding chain 1 EEDDYTAYAPLTCYFW, the enrichment was -0.962 log2 (difference from the parental peptide).
With chain 1 EEDDYTAYFPLTCYFT, the enrichment was -5.95 log2 (difference from the parental peptide).
chain 1 EEDDYTAYSPLTCYFT: the enrichment is -1.71 log2 (difference from the parental peptide).
As for chain 1 ESDDYTAYAPLTCYFT, the figure is -2.78 log2 (difference from the parental peptide); as for chain 1 EVDDYTAYAPLTCYFT, -1.95 log2 (difference from the parental peptide); as for chain 1 ELDDYTAYAPLTCYFT, -2.22 log2 (difference from the parental peptide).
For chain 1 EEADYTAYAPLTCYFT the value was -2.56 log2 (difference from the parental peptide).
For the variant chain 1 EEWDYTAYAPLTCYFT, the enrichment was -3.57 log2 (difference from the parental peptide).
For chain 1 EENDYTAYAPLTCYFT the value was -2.85 log2 (difference from the parental peptide); for chain 1 EESDYTAYAPLTCYFT, -3.39 log2 (difference from the parental peptide).
As for chain 1 EEVDYTAYAPLTCYFT, the figure is -3.25 log2 (difference from the parental peptide); as for chain 1 EEGDYTAYAPLTCYFT, -3.36 log2 (difference from the parental peptide); as for chain 1 EEDDYTAYAPLACYFT, -2.04 log2 (difference from the parental peptide).
Take chain 1 EEDDYTAYAPLNCYFT: the enrichment was 1.57 log2 (difference from the parental peptide).
